Assay results from patent US20170268065.

Molecular target: T1, ELK-1 fusion protein (Cell Signaling), P19419
T1 chain: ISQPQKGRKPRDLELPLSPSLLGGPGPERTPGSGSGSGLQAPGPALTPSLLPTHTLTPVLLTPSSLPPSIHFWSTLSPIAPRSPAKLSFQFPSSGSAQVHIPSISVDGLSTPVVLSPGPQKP

B1: V5-tagged ERK1^Y148H (protein)
chain: MAAAAAQGGGGGEPRRTEGVGPGVPGEVEMVKGQPFDVGPRYTQLQYIGEGAYGMVSSAYDHVRKTRVAIKKISPFEHQTYCQRTLREIQILLRFRHENVIGIRDILRASTLEAMRDVYIVQDLMETDLYKLLKSQQLSNDHICYFLHQILRGLKYIHSANVLHRDLKPSNLLINTTCDLKICDFGLARIADPEHDHTGFLTEYVATRWYRAPEIMLNSKGYTKSIDIWSVGCILAEMLSNRPIFPGKHYLDQLNHILGILGSPSQEDLNCIINMKARNYLQSLPSKTKVAWAKLFPKSDSKALDLLDRMLTFNPNKRITVEEALAHPYLEQYYDPTDEPVAEEPFTFAMELDDLPKERLKELIFQETARFQPGVLEAP
ERK kinase activity (ELK-1 peptide phosphorylation, IP kinase assay after trametinib exposure): diminished residual kinase activity in the setting of trametinib exposure with the common docking domain mutants compared to other alleles
